The data set deals with Hsp90alpha (UniProt P07900). Nature of the data set: FP filter. The settings on record: 5-10-5 gapmer, cEt wings 1-5 and 16-20, 2'-deoxy gap, all C 5mC, full PS; nitrocellulose double-filter binding, printed as binding constant.

These results are taken from patent publication US20180148718.

Sequence “CTGCTAGCCTCTGGATTTGA [Isis 586183 (PS/cEt)]” came in with a Kd of 19.7 nM.

One may read the Kd as the equilibrium constant for the complex coming apart. Read a high Kd as lower affinity.
